In patent US11156615B2 (priority 2015, dated 2021):

How the values were obtained:
[1] = Thermostability: mid-point thermal denaturation temperature (Tm) from temperature-dependent fluorescence (Roche LightCycler); assay type: physicochemical; details: for apoTm: apo-protein
From the text: Protein (un)folding is monitored by binding of SYPRO to the unfolded state as a function of temperature. Fluorescence intensity increases upon binding of SYPRO by the unfolded state.
Panels A-C: ttGBP182C.2.0-Imm0; Panels D-F: ttGBP182C.2.0-Imm1 (see FIG. 13). (A) Solution (Tm=347.6K). (B) Immobilized on Nickel-nitriloacetic acid (Ni-NTA) beads (Tm=346.7K). (C) Reconstituted, desiccated Ni-NTA beads (Tm=347.6K). (D) Fluorescence response of ttGGBP5.2 Imm1 immobilized on NHS-functionalized agarose beads. Data was collected on a Roche LightCycler real-time PCS instrument, recording emission intensities at 488 nm and 510 nm as a function of temperature in a 384-well microtiter plate. […] Temperature melts of twelve different wells. Apo protein thermostability as reported by the denaturation mid-point temperature is 349 K, similar to the protein free in solution. […] (F) Representative Langmuir ligand-binding curve extracted from the three-dimensional data.
Temperatures were advanced in 1K steps. […] Under these experimental photobleaching was not observed.

[2] = Glucose binding: isothermal fluorescence titrations, ratiometric (appKd) and monochromatic (trueKd) fits; set-up: key to Glucose appKd / Glucose trueKd: nb, no bonding
From the text: 2 For a single glucose-binding site, the fractional saturation is given by
[formula] where ^apoIλ2 and ^satIλ2 are the emission intensities of the monochromatic signal at wavelength λ2 of the ligand-free and ligand-bound protein, respectively.

[3] = Galactose binding: isothermal fluorescence titrations of conjugates; set-up: key to Galactose trueKd: nb, no bonding; details: for Kd: read-out: Galactose trueKd; for Kd / Galactose trueKd: monochromatic titration curves, room temperature; for Galactose trueKd: Badan conjugate

## ecGGBP: glucose-galactose binding protein from Escherichia coli, SEQ ID NO: 1 [reference compound]
[1]; GGBP homologs
  mid-point thermal denaturation temperature (Tm): 322 K

B1: ttGGBP182C.2.0⋅Acrylodan: Acrylodan conjugate of ttGGBP W182C with Q148E+R91K double mutation (SEQ ID NO: 88) (conjugate)
chain: MKQLNIGVAIYKFDDTFMTGVRNAMTAEAQGKAKLNMVDSQNSQPTQNDQVDLFITKKMNALAINPVDRTAAGTIIDKAKQANIPVVFFNKEPLPEDMKKWDKVYYVGAKAEQSGILQGQIMADYWKAHPEADKNHDGVMQYVMLMGEPGHQDAILRTQYSIQTVKDAGIKVQELAKDYANCDRVTAHDKMAAWLSSFGDKIEAVFANNDDMALGAIEALKSAGYFTGNKYIPVVGVDATAPGIQAIKDGTLLGTVLNDAKNQAKATFNIAYELAQGITPTKDNIGYDITDGKYVWIPYKKITKDNISDAEQGGSHHHHHH
modifications: Acrylodan conjugate; ttGGBP182C.2.0 (affinity-tuning mutant, 182C background (Table 6) with signal peptide replaced with M and GGSHHHHHH at C-terminus)
[2]; glucose, fit of ratiometric emission signal (figure legends), read-out: appKd
  Kd: 4.5 mM
[2]; glucose, monochromatic fits at 475 nm and 545 nm (FIG. 11), read-out: trueKd
  Kd: 6 mM
[2]; in ttGGBP182C⋅Acrylodan
  decrease in glucose affinity: 2.6 fold

B2: ttGGBP182C.7: affinity-tuning mutant, 182C background, SEQ ID NO: 101 (protein)
chain: MKQLNIGVAIYKFDDTFMTGVRNAMTAEAQGKAKLNMVDSQNSQPTQNDQVDLFITKKMNALAINPVDRTAAGTIIDKAKQANIPVVFFNKEPLPEDMKKWDKVYYVGAKAEQSGILQGQIMADYWKAHPEADKNHDGVMQYVMLMGSPGHQDAILRTQYSIQTVKDAGIKVQELAKDYANCDRVTAHDKMAAWLSSFGDKIEAVFANNDDMALGAIEALKSAGYFTGNKYIPVVGVDATAPGIQAIKDGTLLGTVLNDAKNQAKATFNIAYELAQGITPTKDNIGYDITDGKYVWIPYKKITKDNISDAEQGGSHHHHHH
modifications: ttGGBP182C.7 (affinity-tuning mutant, 182C background (Table 6) with signal peptide replaced with M and GGSHHHHHH at C-terminus)
[1]; Acrylodan conjugate
  apoTm: 346 K
[3]; Acrylodan conjugate
  Kd: 1.1 mM

B3: ttGGBP17C.19: affinity-tuning mutant, 17C background, SEQ ID NO: 77 (protein)
chain: MKQLNIGVAIYKFDDTCMTGVRNAMTAEAQGKAKLNMVDSQNSQPTQNDQVDLFITKKMNALAINPVDRTAAGTIIDKAKQANIPVVFFNREPLPEDMKKWDKVYYVGAKAEQSGILQGQIMADYWKAHPEADKNHDGVMQYVMLMGQPGHQDAILRTQYSIQTVKDAGIKVQELAKDYANWDRVTAHDKMAAWLSSFGDKIEAVFANNDDMALGAIEALKSAGYFTGNKYIPVVGVDATAPGIQAIKDGTLLGTVLDDAKNQAKATFNIAYELAQGITPTKDNIGYDITDGKYVWIPYKKITKDNISDAEQGGSHHHHHH
modifications: ttGGBP17C.19 (affinity-tuning mutant, 17C background (Table 6) with signal peptide replaced with M and GGSHHHHHH at C-terminus)
[2]; Badan conjugate, dichromatic ratiometry, room temperature
  Glucose appKd: nb^e
[2]; Badan conjugate, monochromatic titration curves, room temperature
  Glucose trueKd: nb^e
[1]; Badan conjugate
  apoTm: 344 K
[3]
  Galactose trueKd: nb^e

B4: ttGGBP182C.2.4: affinity-tuning mutant, 182C background, SEQ ID NO: 91 (protein)
chain: MKQLNIGVAIYKFDDTFMTGVRNAMTAEAQGKAKLNMVDSQNSQPTQNDQVDLFITKKMNALAINPVDRTAAGTIIDKAKQANIPVVFFNKEPLPEDMKKWDKVYYVGAKAEQSGILQGQIMADYWKAHPEADKNHDGVMQYVMLMGEPGHQDMILRTQYSIQTVKDAGIKVQELAKDYANCDRVTAHDKMAAWLSSFGDKIEAVFANNDDMALGAIEALKSAGYFTGNKYIPVVGVDATAPGIQAIKDGTLLGTVLNDAKNQAKATFNIAYELAQGITPTKDNIGYDITDGKYVWIPYKKITKDNISDAEQGGSHHHHHH
modifications: ttGGBP182C.2.4 (affinity-tuning mutant, 182C background (Table 6) with signal peptide replaced with M and GGSHHHHHH at C-terminus)
[1]; Acrylodan conjugate
  apoTm: 346 K
[3]; Acrylodan conjugate
  Kd: 4.5 mM

B5: ttGGBP182C.2.8: affinity-tuning mutant, 182C background, SEQ ID NO: 95 (protein)
chain: MKQLNIGVAIYKFDNTFMTGVRNAMTAEAQGKAKLNMVDSQNSQPTQNDQVDLFITKKMNALAINPVDRTAAGTIIDKAKQANIPVVFFNKEPLPEDMKKWDKVYYVGAKAEQSGILQGQIMADYWKAHPEADKNHDGVMQYVMLMGEPGHQDAILRTQYSIQTVKDAGIKVQELAKDYANCDRVTAHDKMAAWLSSFGDKIEAVFANNDDMALGAIEALKSAGYFTGNKYIPVVGVDATAPGIQAIKDGTLLGTVLNDAKNQAKATFNIAYELAQGITPTKDNIGYDITDGKYVWIPYKKITKDNISDAEQGGSHHHHHH
modifications: ttGGBP182C.2.8 (affinity-tuning mutant, 182C background (Table 6) with signal peptide replaced with M and GGSHHHHHH at C-terminus)
[1]; Acrylodan conjugate
  apoTm: 343 K
[3]; Acrylodan conjugate, S > 1, selective for glucose
  S, selectivity = trueKd(galactose)/trueKd(glucose): 1.8

B6: ttGGBP182C: ttGGBP cys mutant, SEQ ID NO: 61 (protein)
chain: MKQLNIGVAIYKFDDTFMTGVRNAMTAEAQGKAKLNMVDSQNSQPTQNDQVDLFITKKMNALAINPVDRTAAGTIIDKAKQANIPVVFFNREPLPEDMKKWDKVYYVGAKAEQSGILQGQIMADYWKAHPEADKNHDGVMQYVMLMGQPGHQDAILRTQYSIQTVKDAGIKVQELAKDYANCDRVTAHDKMAAWLSSFGDKIEAVFANNDDMALGAIEALKSAGYFTGNKYIPVVGVDATAPGIQAIKDGTLLGTVLNDAKNQAKATFNIAYELAQGITPTKDNIGYDITDGKYVWIPYKKITKDNISDAEQGGSHHHHHH
modifications: ttGGBP182C (ttGGBP cys mutant with signal peptide replaced with M and GGSHHHHHH at C-terminus)
[1]; Acrylodan conjugate
  apoTm: 347 K
[3]; Acrylodan conjugate
  Kd: 3.3 mM

B7: ttGGBP17C.21: affinity-tuning mutant, 17C background, SEQ ID NO: 79 (protein)
chain: MKQLNIGVAIYKFDDTCMTGVRNAMTAEAQGKAKLNMVDSQNSQPTQNDQVDLFITKKMNALAINPVDRTAAGTIIDKAKQANIPVVFFNREPLPEDMKKWDKVYYVGAKAEQSGILQGQIMADYWKAHPEADKNHDGVMQYVMLMGQPGHQDAILRTQYSIQTVKDAGIKVQELAKDYANWDRVTAHDKMAAWLSSFGDKIEAVFANNDDMALGAIEALKSAGYFTGNKYIPVVGVDATAPGIQAIKDGTLLGTVLADAKNQAKATFNIAYELAQGITPTKDNIGYDITDGKYVWIPYKKITKDNISDAEQGGSHHHHHH
modifications: ttGGBP17C.21 (affinity-tuning mutant, 17C background (Table 6) with signal peptide replaced with M and GGSHHHHHH at C-terminus)
[2]; read-out: Glucose appKd, Badan conjugate, dichromatic ratiometry, room temperature
  Kd: 61 mM
[2]; read-out: Glucose trueKd, Badan conjugate, monochromatic titration curves, room temperature
  Kd: 69 mM
[1]; Badan conjugate
  apoTm: 345 K
[3]
  Galactose trueKd: nb

B8: ttGGBP182C.2.9: affinity-tuning mutant, 182C background, SEQ ID NO: 96 (protein)
chain: MKQLNIGVAIYKFDDTFMTGVRNAMTAEAQGKAKLNMVDSQNSQPTQNDQVDLFITKKMNALAINPVDRTAAGTIIDKAKQANIPVVFFNKEPLPEDMKKWDKVYYVGAKAEQSGILQGQIMADYWKAHPEADKNHDGVMQYVMLMGEPGHQDFILRTQYSIQTVKDAGIKVQELAKDYANCDRVTAHDKMAAWLSSFGDKIEAVFANNDDMALGAIEALKSAGYFTGNKYIPVVGVDATAPGIQAIKDGTLLGTVLNDAKNQAKATFNIAYELAQGITPTKDNIGYDITDGKYVWIPYKKITKDNISDAEQGGSHHHHHH
modifications: ttGGBP182C.2.9 (affinity-tuning mutant, 182C background (Table 6) with signal peptide replaced with M and GGSHHHHHH at C-terminus)
[1]; Acrylodan conjugate
  apoTm: 345 K

B9: ttGGBP182C.2.7: affinity-tuning mutant, 182C background, SEQ ID NO: 94 (protein)
chain: MKQLNIGVAIYKFDDTFMTGVRNAMTAEAQGKAKLNMVDSQNSQPTQNDQVDLFITKKMNALAINPVDRTAAGTIIDKAKQANIPVVFFNKEPLPEDMKKWDKVYYVGAKAEQSGILQGQIMADYWKAHPEADKNHDGVMQYVMLMGEPGFQDAILRTQYSIQTVKDAGIKVQELAKDYANCDRVTAHDKMAAWLSSFGDKIEAVFANNDDMALGAIEALKSAGYFTGNKYIPVVGVDATAPGIQAIKDGTLLGTVLNDAKNQAKATFNIAYELAQGITPTKDNIGYDITDGKYVWIPYKKITKDNISDAEQGGSHHHHHH
modifications: ttGGBP182C.2.7 (affinity-tuning mutant, 182C background (Table 6) with signal peptide replaced with M and GGSHHHHHH at C-terminus)
[1]; Acrylodan conjugate
  apoTm: 346 K
